Assay results published in US20160297873A1 (VIRGINIA COMMONWEALTH UNIVERSITY, published 2016).

T1: biotinylated DENND1A.V2 specific 21 amino acid peptide QKSITHFAAKFPTRGWTSSSH (Biotin-CH22) (human, biotinylated (position not given))
T1 construct: Immobilised on streptavidin pre-coated plates; The label CH22 is not explained; also called Bio-CH-22; bio-peptide
T1 peptide: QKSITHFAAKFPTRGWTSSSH


Key:
[1] = biological target: biotinylated DENND1A.V2 specific 21 amino acid peptide … (Biotin-CH22) (human); test: QC phage ELISA-1, helper phage control, coating Biotin-CH22
[2] = biological target: biotinylated DENND1A.V2 specific 21 amino acid peptide … (Biotin-CH22) (human); test: QC phage ELISA-2, helper phage control, coating Biotin-CH22
[3] = biological target: T1, biotinylated DENND1A.V2 specific 21 …; test: ELISA (FIG. 11C)

| Molecule | phage ELISA signal [1] | phage ELISA signal [2] | binding result [3] |
| --- | --- | --- | --- |
| M13KO7 helper phage | 0.477 | 0.533 |  |
| human recombinant DENND1A.V2 specific IgG1 (V2 hmAB) (antibody, V domains shown, Expressed in 293E cells, Protein A purified; also called humanized monoclonal antibody; recombinant DENND1A.V2 IgG1) VH: EVQLLESGGGLVQPGGSLRLSCAASGFTFSSYAMSWVRQAPGKGLEWVSIIGTDGDDTNYADSVKGRFTISRDNSKNTLYLQMNSLRAEDTAVYYCAKAEASFDYWGQGTLVTVSS VL: DIQMTQSPSSLSASVGDRVTITCRASQSISSYLNWYQQKPGKAPKLLIYGASDLQSGVPSRFSGSGSGTDFTLTISSLQPEDFATYYCQQYDSAPSTFGQGTKVEIKR |  |  | binds |
